Test results taken from paper PMC5299843.

How the values were obtained:
[1] = target: recombinant LH/CG receptor (UniProt P22888)
[2] = target: recombinant LH/CG receptor (UniProt P22888); remark: listed apart in the source

UniProt P22888, sequence (P22888 27-699): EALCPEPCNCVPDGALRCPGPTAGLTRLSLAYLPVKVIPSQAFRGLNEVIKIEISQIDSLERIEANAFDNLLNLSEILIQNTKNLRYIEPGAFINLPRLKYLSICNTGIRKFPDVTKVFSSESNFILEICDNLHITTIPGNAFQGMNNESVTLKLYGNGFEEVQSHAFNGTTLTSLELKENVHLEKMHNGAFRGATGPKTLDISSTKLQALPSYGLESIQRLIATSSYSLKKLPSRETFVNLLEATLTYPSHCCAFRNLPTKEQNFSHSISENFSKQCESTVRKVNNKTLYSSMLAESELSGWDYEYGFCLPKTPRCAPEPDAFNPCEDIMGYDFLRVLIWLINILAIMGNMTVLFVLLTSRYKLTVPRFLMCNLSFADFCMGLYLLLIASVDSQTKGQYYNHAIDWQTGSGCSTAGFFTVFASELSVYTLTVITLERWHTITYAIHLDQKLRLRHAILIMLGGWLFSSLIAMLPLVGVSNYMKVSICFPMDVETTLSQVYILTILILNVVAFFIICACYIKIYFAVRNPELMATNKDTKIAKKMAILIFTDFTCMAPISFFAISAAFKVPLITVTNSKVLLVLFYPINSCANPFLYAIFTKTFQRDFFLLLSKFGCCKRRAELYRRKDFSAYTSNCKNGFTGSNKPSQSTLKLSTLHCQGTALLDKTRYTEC

cAMP biosensor signal in COS7-LHCGR cells with 30 pM hCG after heat treatment of the hormone at 65 °C for 30 min; loss in active hormone concentration [1]: 40% | change of FRET signal of the cAMP biosensor TEpacVV in living COS7-LHCGR cells, serial concentrations of hCG over time; concentration giving full receptor activation [2]: 50 pM
Substance: human recombinant chorionic gonadotropin (hCG, Ovitrelle) (from UniProt P01215 25-116; P0DN86 21-165) (ligand)
